This assay has as its target T1, mouse DEC205 receptor (mouse, UniProt Q60767 28-1723).
T1 construct: whole, on cells; also called DEC25 receptor; CD205
As to the kind of experiment: flow cytometry on DEC205-transfected A204 cells. In general terms: In flow cytometry, cells or beads pass a laser one at a time.

B1: PyTh1 chimeric molecule (other)
heavy: EVKLLESGGGLVQPGGSLRLSCAASGFTFNDFYMNWIRQPPGQAPEWLGVIRNKGNGYTTEVNTSVKGRFTISRDNTQNILYLQMNSLRAEDTAIYYCARGGPYYYSGDDAPYWGQGVMVTVSSAKTTAPSVYPLAPVCGDTTGSSVTLGCLVKGYFPEPVTLTWNSGSLSSGVHTFPAVLQSDLYTLSSSVTVTSSTWPSQSITCNVAHPASSTKVDKKIEPRGPTIKPCPPCKCPAPNLLGGPSVFIFPPKIKDVLMISLSPIVTCVVVDVSEDDPDVQISWFVNNVEVHTAQTQTHREDYNSTLRVVSALPIQHQDWMSGKEFKCKVNNKDLPAPIERTISKPKGSVRAPQVYVLPPPEEEMTKKQVTLTCMVTDFMPEDIYVEWTNNGKTELNYKNTEPVLDSDGSYFMYSKLRVEKKNWVERNSYSCSVVHEGLHNHHTTKSFSQTPGKGGGGSGGGGSGGGGSVDEQLSKSVKDKVLLPCRYNSPHEDECEDRIYWQKHDKVVLSVIAGKLKVWPEYKNRTLYDNTTYSLIILGLVLSDRGTYSCVVQKKERGTYEVKHLALVKLSIKADFSTPNITESGNPSADTKRITCFASGGFPKPRFSWLENGRELPGINTTISQDPESELYTISSQLDFNTTRNHTIKCLIKYGDAHVSEDFTWEKPPEDPPDSK
light: DIQMTQSPSFLSTSLGNSITITCHASQNIKGWLAWYQQKSGNAPQLLIYKASSLQSGVPSRFSGSGSGTDYIFTISNLQPEDIATYYCQHYQSFPWTFGGGTKLELKRDAAPTVSIFPPSSEQLTSGGASVVCFLNNFYPKDINVKWKIDGSERQNGVLNSWTDQDSKDSTYSMSSTLTLTKDEYERHNSYTCEATHKTSTSPIVKSFNRNECGGGGSGGGGMGGGGSYNRNIVNRLLGDALNGKPEEK
notes: Mouse IgG2a scaffold with the variable domains of rat anti-mouse DEC205, made in SP20 myeloma cells; also called PhyTh1; PyTh1 vaccine
As for B1, the binding result is recorded as “binds”.

The values are drawn from patent US20120195893A1 (UNITED STATES OF AMERICA AS REPRESENTED BY THE SECRETARY OF …, published 2012).
